Consider four proteins from US12545707 (UNIVERSITY OF DELAWARE, dated 2026).

*: point of attachment. TAMRA = 5(6)-carboxytetramethylrhodamine amide on Lys NZ; Butanoyl(4-maleimido) = O=C1C=CC(=O)N1CCCC(=O)*; NBD = O=[N+]([O-])c1ccc(*)c2nonc12

Series [1] concerns the molecule itself. The experiment in a line: self-association of the peptide into a homotetrameric coiled coil bundle; TEM, cryoTEM and SANS of the linked bundle chains. Here is the method: Transmission Electron Microscopy (TEM): Carbon-coated 200 mesh copper grids (CF200-Cu, Electron Microscopy Sciences, Inc.) were freshly treated by glow discharge using a plasma cleaner (PDC-32G, Harrica Plasma, Inc.) at low level for 20 seconds. Then, 4 µL sample solution was dropped on the grid. After 1 min, the remaining liquid was blotted from the edge of the grid using filter paper. The grid was allowed to air-dry for 10 min before TEM observation on FEI TALOS™ F200C microscope. For negative staining, 6 µL aqueous solution of phosphotungstic acid (2 w/v %, pH 6) was applied to the dried grid and incubated for 15-30 seconds. Then the grid was blotted with filter paper. The stained grid was allowed to sit for 10 min before TEM observation.

Series [2] deals with the molecule itself. Kind of series: self-association of the dye-labelled peptide into a tetrameric bundle; STORM imaging of the rods. As for the experimental part:
With these rigid-rod molecules, the local amino acid sequence along the rods is determined via computational design. With this specified sequence, robust bundle physical assembly, and subsequent covalent polymer formation, one can display desired functionality locally within the polymer chain. High-resolution fluorescence microscopy provides the tool for observation of rigid-rod polymers synthesized with fluorophores attached to specific lysine side chains. Rods with targeted lengths of ~50 nm were first assembled using the same parent peptides as described in FIG. 33 with the short rod termini consisting of bundles displaying thiol functionality (FIG. 33A, more description in Methods). The maleimide-terminated peptides used in the short rod syntheses were functionalized with a desired fluorescent dye (rhodamine; nitrobenzofurazan (NBD); see FIG. 35A). […] After short rod synthesis with desired dye incorporation, separate populations of short red rods and short green rods were mixed together along with individual bundles with maleimide termini and no dye (FIG. 33A and FIG. 35A) in order to link the short, dyed rods together into longer rigid-rod chains. […] The sub-optical wavelength resolution of the STORM technique (stochastic optical reconstruction microscopy) allows clear observation of the ~50 nm long, individual rod segments within final, longer rods. […]

B1: Peptide 1 (maleimide-functionalized bundle-forming peptide, SEQ ID NO: 3) (peptide)
peptide: {Butanoyl(4-maleimido)}-DEKIKNMADQIKHMAWMIDRMAEKIDREA-NH2
modifications: not fully specified (residue 1)
notes: Four copies associate non-covalently into an antiparallel homotetrameric coiled coil bundle; also called P622-A6-1; maleimide-containing peptide
Take B1: the binding result in series [1] is “binds”.

B2: Peptide 2 (bundle-forming peptide with N-terminal cysteine, SEQ ID NO: 1) (peptide)
peptide: H-CDEEIRRMAEEIRQMAERIQQMAEQIQQEA-NH2
modifications: not fully specified
notes: Four copies associate non-covalently into an antiparallel homotetrameric coiled coil bundle; also called 4459a-C; thiol-containing peptide
In the case of B2, the binding result in series [1] is given as “binds”.

B3: Peptide 3 (SEQ ID NO: 3, maleimide N-terminus, nitrobenzofurazan dye on a lysine side chain) (peptide)
peptide: {Butanoyl(4-maleimido)}-DEKIKNMADQIKHMAWMIDRMAEK(NBD)IDREA-NH2
modifications: not fully specified (residue 1)
notes: also called green dye peptide
Turning to B3, the binding result in series [2] was “binds”.

B4: Peptide 4 (SEQ ID NO: 3, maleimide N-terminus, tetramethylrhodamine dye on a lysine side chain) (peptide)
peptide: {Butanoyl(4-maleimido)}-DEKIKNMADQIKHMAWMIDRMAEK(TAMRA)IDREA-NH2
modifications: not fully specified (residue 1)
notes: also called red dye peptide
B4: the binding result in series [2] is given as “binds”.
